Assays:
[1] = target: jkip2_human JAKMIP2 (UniProt Q96AA8)
[2] = target: nf2l2_human NFE2L2 (UniProt Q16236)
[3] = target: ccdb1_human CCNDBP1 (UniProt O95273)
[4] = target: tom1_human TOM1 (UniProt O60784)
[5] = target: kr101_human KRTAP10-1 (UniProt P60331)
[6] = target: T1, odam_human ODAM (UniProt A1E959)
T1 sequence: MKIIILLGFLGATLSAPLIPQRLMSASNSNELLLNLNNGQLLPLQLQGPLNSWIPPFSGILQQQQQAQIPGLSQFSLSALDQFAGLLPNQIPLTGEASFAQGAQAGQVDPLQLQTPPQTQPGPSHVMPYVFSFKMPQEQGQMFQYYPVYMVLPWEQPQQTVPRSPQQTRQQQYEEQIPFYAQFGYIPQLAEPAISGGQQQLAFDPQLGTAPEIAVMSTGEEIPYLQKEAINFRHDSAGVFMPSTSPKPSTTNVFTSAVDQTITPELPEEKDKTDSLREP

[7] = target: T2, rhxf2_human RHOXF2 (UniProt Q9BQY4)
T2 sequence: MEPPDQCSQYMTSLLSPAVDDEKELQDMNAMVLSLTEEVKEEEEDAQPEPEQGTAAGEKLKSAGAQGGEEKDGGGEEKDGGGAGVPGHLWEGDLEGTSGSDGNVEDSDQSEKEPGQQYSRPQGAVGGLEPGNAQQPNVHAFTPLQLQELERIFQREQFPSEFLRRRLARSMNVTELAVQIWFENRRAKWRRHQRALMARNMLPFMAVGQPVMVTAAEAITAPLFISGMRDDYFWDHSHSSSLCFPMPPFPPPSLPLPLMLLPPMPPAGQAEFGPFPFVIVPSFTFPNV

[8] = target: S100A1 (UniProt P23297)
[9] = target: ubql1_human UBQLN1 (UniProt Q9UMX0)
[10] = target: cep70_human CEP70 (UniProt Q8NHQ1)
cep70_human CEP70, sequence (Q8NHQ1 whole entry): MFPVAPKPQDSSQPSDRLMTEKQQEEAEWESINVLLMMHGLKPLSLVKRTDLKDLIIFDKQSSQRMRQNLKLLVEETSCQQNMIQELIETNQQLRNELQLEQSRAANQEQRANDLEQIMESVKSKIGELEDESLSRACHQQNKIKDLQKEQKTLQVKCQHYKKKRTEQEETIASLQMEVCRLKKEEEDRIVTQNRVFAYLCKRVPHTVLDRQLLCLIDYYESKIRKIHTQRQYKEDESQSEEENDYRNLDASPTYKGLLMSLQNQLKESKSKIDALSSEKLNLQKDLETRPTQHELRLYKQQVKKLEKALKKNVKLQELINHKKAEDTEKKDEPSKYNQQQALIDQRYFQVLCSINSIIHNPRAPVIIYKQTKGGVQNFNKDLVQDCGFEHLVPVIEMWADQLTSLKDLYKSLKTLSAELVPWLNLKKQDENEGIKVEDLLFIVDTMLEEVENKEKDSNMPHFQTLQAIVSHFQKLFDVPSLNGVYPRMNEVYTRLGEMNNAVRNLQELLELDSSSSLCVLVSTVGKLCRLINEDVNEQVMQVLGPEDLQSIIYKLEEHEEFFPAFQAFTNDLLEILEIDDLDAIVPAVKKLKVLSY

[11] = target: tri41_human TRIM41 (UniProt Q8WV44)
[12] = target: snrpa_human SNRPA (UniProt P09012)
[13] = target: ptbp2_human PTBP2 (UniProt Q9UKA9)
[14] = target: naif1_human NAIF1 (UniProt Q69YI7)
[15] = target: stat3_human STAT3 (UniProt P40763)
[16] = target: efs_human EFS (UniProt O43281)
efs_human EFS, sequence (O43281 whole entry): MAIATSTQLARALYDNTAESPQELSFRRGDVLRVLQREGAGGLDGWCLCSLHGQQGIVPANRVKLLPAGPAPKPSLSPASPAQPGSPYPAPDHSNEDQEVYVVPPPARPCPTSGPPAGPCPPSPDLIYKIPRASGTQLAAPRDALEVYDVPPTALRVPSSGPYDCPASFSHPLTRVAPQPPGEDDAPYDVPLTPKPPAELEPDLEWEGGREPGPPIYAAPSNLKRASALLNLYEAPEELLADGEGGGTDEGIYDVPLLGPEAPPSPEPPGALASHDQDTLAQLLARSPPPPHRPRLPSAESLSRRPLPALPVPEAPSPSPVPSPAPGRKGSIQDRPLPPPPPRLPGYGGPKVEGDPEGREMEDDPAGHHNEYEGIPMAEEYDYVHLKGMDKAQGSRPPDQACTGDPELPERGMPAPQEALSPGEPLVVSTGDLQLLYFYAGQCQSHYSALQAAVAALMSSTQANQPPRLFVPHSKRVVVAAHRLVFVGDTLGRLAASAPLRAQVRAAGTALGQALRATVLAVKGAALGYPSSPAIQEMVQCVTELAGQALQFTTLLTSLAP

[17] = target: zn446_human ZNF446 (UniProt Q9NWS9)
[18] = target: pgbd1_human PGBD1 (UniProt Q96JS3)
pgbd1_human PGBD1, sequence (Q96JS3 whole entry): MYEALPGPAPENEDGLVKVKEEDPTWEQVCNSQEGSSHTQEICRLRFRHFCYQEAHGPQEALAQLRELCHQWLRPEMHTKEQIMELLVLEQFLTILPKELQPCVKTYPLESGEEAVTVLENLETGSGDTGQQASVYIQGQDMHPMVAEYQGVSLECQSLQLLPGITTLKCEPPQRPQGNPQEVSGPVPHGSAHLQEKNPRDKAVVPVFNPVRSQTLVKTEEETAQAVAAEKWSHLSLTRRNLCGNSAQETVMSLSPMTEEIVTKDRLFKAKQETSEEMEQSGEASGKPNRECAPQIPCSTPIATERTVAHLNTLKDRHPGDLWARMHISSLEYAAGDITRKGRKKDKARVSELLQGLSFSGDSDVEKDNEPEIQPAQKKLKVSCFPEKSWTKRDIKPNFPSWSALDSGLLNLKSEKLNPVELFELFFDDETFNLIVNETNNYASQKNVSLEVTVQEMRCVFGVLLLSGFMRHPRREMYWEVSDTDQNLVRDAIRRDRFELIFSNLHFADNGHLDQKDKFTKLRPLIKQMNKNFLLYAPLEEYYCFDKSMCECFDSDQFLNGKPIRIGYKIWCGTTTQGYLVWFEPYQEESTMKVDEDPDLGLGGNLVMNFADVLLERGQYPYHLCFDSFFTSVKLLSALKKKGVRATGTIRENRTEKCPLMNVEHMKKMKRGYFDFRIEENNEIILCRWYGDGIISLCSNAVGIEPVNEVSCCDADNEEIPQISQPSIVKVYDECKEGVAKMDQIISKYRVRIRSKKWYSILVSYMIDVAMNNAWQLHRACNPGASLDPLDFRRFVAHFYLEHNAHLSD

[19] = target: zsc32_human ZSCAN32 (UniProt Q9NX65)
[20] = target: zn496_human ZNF496 (UniProt Q96IT1)
[21] = target: tfp11_human TFIP11 (UniProt Q9UBB9)
[22] = target: reep6_human REEP6 (UniProt Q96HR9)
[23] = target: atrap_human AGTRAP (UniProt Q6RW13)
[24] = target: T3, nqo2_human NQO2 (UniProt P16083)
T3 sequence: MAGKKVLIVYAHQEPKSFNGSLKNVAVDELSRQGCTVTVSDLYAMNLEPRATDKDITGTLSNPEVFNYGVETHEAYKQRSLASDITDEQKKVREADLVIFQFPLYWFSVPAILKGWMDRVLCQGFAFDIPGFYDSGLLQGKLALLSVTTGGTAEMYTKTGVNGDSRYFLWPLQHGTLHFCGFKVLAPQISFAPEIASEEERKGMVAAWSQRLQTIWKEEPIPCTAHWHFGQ

[25] = target: rgs3_human RGS3 (UniProt P49796)
[26] = target: stox1_human STOX1 (UniProt Q6ZVD7)
stox1_human STOX1, sequence (Q6ZVD7 whole entry): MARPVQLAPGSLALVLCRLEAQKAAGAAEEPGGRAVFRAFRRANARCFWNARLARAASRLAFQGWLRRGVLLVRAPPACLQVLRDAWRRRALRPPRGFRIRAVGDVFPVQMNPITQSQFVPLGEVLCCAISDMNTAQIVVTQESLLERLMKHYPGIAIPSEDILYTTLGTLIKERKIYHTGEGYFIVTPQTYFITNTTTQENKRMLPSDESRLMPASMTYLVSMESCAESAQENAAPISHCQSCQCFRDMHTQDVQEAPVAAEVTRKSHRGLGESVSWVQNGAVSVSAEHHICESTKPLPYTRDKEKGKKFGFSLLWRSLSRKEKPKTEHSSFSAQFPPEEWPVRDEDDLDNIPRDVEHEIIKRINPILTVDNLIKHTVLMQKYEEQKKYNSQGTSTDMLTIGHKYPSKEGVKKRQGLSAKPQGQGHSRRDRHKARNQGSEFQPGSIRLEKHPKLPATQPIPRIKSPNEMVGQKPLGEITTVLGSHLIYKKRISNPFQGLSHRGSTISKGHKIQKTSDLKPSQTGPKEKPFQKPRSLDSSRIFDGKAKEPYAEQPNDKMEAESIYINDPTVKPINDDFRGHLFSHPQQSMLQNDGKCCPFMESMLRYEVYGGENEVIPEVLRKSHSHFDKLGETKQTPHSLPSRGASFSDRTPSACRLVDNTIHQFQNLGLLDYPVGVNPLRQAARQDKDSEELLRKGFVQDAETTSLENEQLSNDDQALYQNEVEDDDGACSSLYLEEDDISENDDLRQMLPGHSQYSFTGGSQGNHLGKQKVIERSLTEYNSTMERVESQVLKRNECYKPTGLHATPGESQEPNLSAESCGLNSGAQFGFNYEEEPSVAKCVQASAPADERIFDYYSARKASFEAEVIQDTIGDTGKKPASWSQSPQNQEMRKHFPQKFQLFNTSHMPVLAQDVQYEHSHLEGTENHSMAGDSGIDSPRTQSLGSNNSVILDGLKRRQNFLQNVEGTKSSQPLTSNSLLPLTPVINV

[27] = target: T4, mycd_human MYOCD (UniProt Q8IZQ8)
T4 sequence: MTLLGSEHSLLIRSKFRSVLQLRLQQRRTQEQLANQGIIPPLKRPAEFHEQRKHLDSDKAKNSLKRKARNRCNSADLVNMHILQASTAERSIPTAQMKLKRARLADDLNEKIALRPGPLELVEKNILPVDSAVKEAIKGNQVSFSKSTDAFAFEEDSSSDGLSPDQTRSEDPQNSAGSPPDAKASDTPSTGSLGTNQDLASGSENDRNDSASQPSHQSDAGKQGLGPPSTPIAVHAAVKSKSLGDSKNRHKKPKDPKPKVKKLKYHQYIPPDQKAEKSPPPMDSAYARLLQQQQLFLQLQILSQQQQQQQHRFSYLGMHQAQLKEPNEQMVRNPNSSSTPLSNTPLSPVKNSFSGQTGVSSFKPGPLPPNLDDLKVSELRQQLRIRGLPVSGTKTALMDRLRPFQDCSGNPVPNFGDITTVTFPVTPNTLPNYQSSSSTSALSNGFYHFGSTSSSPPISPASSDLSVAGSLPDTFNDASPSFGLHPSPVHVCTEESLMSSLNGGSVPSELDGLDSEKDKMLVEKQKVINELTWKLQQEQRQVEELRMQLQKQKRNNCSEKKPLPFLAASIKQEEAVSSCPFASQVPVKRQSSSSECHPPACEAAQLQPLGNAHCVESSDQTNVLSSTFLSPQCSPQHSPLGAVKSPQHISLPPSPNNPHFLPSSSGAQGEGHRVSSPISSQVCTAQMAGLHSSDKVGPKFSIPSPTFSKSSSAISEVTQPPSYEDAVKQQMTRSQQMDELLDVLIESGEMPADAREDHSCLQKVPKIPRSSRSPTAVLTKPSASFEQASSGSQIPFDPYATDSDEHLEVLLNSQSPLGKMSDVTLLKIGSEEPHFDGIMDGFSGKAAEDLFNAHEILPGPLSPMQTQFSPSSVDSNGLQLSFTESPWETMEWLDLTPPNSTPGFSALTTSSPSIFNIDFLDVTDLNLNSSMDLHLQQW

[28] = target: T5, fosl2_human FOSL2 (UniProt P15408)
T5 sequence: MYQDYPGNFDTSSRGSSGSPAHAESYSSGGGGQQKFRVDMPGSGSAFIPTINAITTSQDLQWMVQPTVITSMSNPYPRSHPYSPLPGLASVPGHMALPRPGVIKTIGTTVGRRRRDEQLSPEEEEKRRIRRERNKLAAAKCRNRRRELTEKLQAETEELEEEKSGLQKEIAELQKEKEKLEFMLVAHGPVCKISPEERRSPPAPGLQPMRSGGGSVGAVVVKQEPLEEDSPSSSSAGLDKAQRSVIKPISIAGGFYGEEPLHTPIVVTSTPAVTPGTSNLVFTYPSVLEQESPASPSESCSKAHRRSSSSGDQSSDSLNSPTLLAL

[29] = target: gt253_human CERCAM (UniProt Q5T4B2)
[30] = target: vtnc_human VTN (UniProt P04004)
[31] = target: ap2m1_human AP2M1 (UniProt Q96CW1)
[32] = target: pram_human PRAM1 (UniProt Q96QH2)
[33] = target: scel_human SCEL (UniProt O95171)
[34] = target: ptps_human PTS (UniProt Q03393)
[35] = target: tb22b_human TBC1D22B (UniProt Q9NU19)
[36] = target: cdkl3_human CDKL3 (UniProt Q8IVW4)
[37] = target: frih_human FTH1 (UniProt P02794)
[38] = target: lcp2_human LCP2 (UniProt Q13094)
[39] = target: phs_human PCBD1 (UniProt P61457)
[40] = target: FBP1 (UniProt P09467)
[41] = target: cep70_human CEP70 (UniProt Q8NHQ1); remark: listed apart in the source
[42] = target: zc4h2_human ZC4H2 (UniProt Q9NQZ6)
zc4h2_human ZC4H2, sequence (Q9NQZ6 whole entry): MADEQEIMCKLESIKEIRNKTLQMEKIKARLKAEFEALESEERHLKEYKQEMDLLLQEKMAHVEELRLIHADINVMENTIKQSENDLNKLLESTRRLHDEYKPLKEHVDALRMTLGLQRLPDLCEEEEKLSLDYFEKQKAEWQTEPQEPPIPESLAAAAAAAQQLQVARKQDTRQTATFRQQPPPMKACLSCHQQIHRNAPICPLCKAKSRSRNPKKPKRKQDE

[43] = target: mtus2_human MTUS2 (UniProt Q5JR59)
[44] = target: cc136_human CCDC136 (UniProt Q96JN2)
[45] = target: cep70_human CEP70 (UniProt Q8NHQ1); remark: listed apart in the source
[46] = target: tri41_human TRIM41 (UniProt Q8WV44); remark: listed apart in the source
[47] = target: anr44_human ANKRD44 (UniProt Q8N8A2)
[48] = target: leg9b_human LGALS9B (UniProt Q3B8N2)
[49] = target: pdli7_human PDLIM7 (UniProt Q9NR12)

Troponin T, slow skeletal muscle (Homo sapiens), P13805 R39S, sequence (P13805 whole entry R39S): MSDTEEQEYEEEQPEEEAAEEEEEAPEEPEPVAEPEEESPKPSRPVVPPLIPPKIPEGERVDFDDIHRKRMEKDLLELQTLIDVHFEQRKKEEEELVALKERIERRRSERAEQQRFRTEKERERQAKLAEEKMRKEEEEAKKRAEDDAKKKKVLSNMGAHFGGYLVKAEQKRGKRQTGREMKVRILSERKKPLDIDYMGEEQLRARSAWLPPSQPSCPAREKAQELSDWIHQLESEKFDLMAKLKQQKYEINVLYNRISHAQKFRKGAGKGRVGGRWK
Zinc finger and SCAN domain-containing protein 22 (Homo sapiens), P10073 A321V, sequence (P10073 whole entry A321V, the tested form may be a part): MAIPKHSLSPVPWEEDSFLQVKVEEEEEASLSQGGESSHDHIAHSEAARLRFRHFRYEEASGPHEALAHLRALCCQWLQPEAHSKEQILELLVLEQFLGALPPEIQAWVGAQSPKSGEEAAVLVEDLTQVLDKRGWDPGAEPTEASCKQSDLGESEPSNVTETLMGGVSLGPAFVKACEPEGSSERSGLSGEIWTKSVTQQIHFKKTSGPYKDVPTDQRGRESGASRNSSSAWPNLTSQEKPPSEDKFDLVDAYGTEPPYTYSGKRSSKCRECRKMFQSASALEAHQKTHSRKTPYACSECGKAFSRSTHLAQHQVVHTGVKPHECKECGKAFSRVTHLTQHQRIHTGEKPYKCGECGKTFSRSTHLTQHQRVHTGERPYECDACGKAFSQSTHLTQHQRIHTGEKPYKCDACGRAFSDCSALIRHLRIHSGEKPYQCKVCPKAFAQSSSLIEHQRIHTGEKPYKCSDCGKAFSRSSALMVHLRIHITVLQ
Polypyrimidine tract-binding protein 1 (Homo sapiens), P26599 A173T, sequence (P26599 whole entry A173T): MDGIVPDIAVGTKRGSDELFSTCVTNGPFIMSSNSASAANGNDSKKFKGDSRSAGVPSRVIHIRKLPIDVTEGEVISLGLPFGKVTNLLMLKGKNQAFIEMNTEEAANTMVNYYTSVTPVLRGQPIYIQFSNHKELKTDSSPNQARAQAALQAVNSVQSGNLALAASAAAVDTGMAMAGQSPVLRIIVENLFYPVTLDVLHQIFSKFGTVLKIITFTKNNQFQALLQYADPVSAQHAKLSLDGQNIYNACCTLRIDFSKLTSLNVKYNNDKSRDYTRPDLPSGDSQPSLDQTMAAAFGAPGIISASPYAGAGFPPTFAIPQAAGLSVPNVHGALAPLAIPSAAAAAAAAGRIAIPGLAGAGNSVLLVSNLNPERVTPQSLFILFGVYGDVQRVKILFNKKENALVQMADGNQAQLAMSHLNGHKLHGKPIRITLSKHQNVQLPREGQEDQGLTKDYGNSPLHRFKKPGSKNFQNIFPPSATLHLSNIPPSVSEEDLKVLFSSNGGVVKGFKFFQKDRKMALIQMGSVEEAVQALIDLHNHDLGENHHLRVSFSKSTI
Tyrosine-protein kinase Blk (Homo sapiens), P51451 A71T, sequence (P51451 whole entry A71T): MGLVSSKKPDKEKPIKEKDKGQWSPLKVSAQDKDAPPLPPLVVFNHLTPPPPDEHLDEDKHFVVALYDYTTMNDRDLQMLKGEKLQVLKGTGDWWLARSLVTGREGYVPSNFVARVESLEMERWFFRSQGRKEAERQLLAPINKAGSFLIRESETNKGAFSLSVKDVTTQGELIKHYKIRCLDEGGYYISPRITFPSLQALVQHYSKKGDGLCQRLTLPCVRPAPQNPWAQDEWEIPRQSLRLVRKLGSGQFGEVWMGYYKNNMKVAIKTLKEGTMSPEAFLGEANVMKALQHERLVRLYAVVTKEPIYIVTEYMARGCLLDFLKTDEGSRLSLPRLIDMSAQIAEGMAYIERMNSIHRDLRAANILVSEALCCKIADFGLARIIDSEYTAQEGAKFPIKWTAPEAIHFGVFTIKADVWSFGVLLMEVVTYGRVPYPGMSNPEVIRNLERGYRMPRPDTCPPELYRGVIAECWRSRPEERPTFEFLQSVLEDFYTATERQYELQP

Troponin T, slow skeletal muscle (Homo sapiens), P13805 R39S
effect of a mutation on the interaction [1]: with no effect
effect of a mutation on the interaction [2]: with no effect
effect of a mutation on the interaction [3]: with no effect

Toll-interacting protein (Homo sapiens) (from UniProt Q9H0E2) I264V
effect of a mutation on the interaction [4]: with no effect

Zinc finger protein 264 (Homo sapiens), O43296 G166D
effect of a mutation on the interaction [5]: with no effect

Toll-interacting protein (Homo sapiens) (from UniProt Q9H0E2) A222S
effect of a mutation on the interaction [6]: with no effect
effect of a mutation on the interaction [7]: with no effect

Protein S100-A2 (Homo sapiens), P29034 S62N
effect of a mutation on the interaction [8]: with no effect

Thioredoxin domain-containing protein 12 (Homo sapiens), O95881 T80M
effect of a mutation on the interaction [9]: with no effect

Zinc finger protein 329 (Homo sapiens), Q86UD4 N182D
effect of a mutation on the interaction [10]: with no effect
effect of a mutation on the interaction [11]: with no effect

Polypyrimidine tract-binding protein 1 (Homo sapiens), P26599 A173T
effect of a mutation on the interaction [12]: with no effect
effect of a mutation on the interaction [13]: with no effect

Transcription factor SOX-14 (Homo sapiens), O95416 A107G
effect of a mutation on the interaction [14]: with no effect

Tyrosine-protein kinase Blk (Homo sapiens), P51451 A71T
effect of a mutation on the interaction [15]: with no effect
effect of a mutation on the interaction [16]: with no effect

Zinc finger and SCAN domain-containing protein 22 (Homo sapiens), P10073 A321V
effect of a mutation on the interaction [17]: with no effect
effect of a mutation on the interaction [18]: with no effect
effect of a mutation on the interaction [19]: with no effect
effect of a mutation on the interaction [20]: with no effect

Atypical kinase COQ8A, mitochondrial (Homo sapiens), Q8NI60 D100Y
effect of a mutation on the interaction [21]: with no effect
effect of a mutation on the interaction [22]: with no effect
effect of a mutation on the interaction [23]: with no effect

Golgi reassembly-stacking protein 2 (Homo sapiens) (from UniProt Q9H8Y8) S432F
effect of a mutation on the interaction [24]: with no effect
effect of a mutation on the interaction [25]: with no effect
effect of a mutation on the interaction [26]: with no effect

Golgi-associated PDZ and coiled-coil motif-containing protein (Homo sapiens) (from UniProt Q9HD26) L123V
effect of a mutation on the interaction [27]: with no effect
effect of a mutation on the interaction [28]: with no effect
effect of a mutation on the interaction [29]: with no effect
effect of a mutation on the interaction [30]: with no effect

RNA-binding protein FXR2 (Homo sapiens), P51116 K651E
effect of a mutation on the interaction [31]: with no effect
effect of a mutation on the interaction [32]: with no effect
effect of a mutation on the interaction [33]: with no effect
effect of a mutation on the interaction [34]: with no effect
effect of a mutation on the interaction [35]: with no effect
effect of a mutation on the interaction [36]: with no effect
effect of a mutation on the interaction [37]: with no effect
effect of a mutation on the interaction [38]: with no effect
effect of a mutation on the interaction [39]: with no effect
effect of a mutation on the interaction [40]: disrupting interaction strength

Zinc finger protein 227 (Homo sapiens), Q86WZ6 P249S
effect of a mutation on the interaction [41]: with no effect

Zinc finger protein 490 (Homo sapiens), Q9ULM2 E419K
effect of a mutation on the interaction [42]: with no effect
effect of a mutation on the interaction [43]: with no effect
effect of a mutation on the interaction [44]: with no effect
effect of a mutation on the interaction [45]: with no effect
effect of a mutation on the interaction [46]: with no effect

NEDD4-like E3 ubiquitin-protein ligase WWP2 (Homo sapiens), O00308 R315C
effect of a mutation on the interaction [47]: with no effect
effect of a mutation on the interaction [48]: with no effect
effect of a mutation on the interaction [49]: with no effect

Source: IntAct's records for PubMed 31515488
